Measurements published in patent publication US20070196883A1, “ENZYME” (UNIVERSITY OF DUNDEE, priority 1999, published 2007).
Where two headings read alike, the source gives them in different places. Blank lines part the entries; values can stand above or below the substance they belong to. Ends that are not written are not given here.

Key:
[1] = target: T1, endogenous PDK1 (Homo sapiens, UniProt O15530); test: Association of endogenous PDK1 with GST-PIF proteins purified from 293 cells; format: binding; conditions: expressed in 293 cells, glutathione-Sepharose purified; PDK1 immunoblot and activity
T1 construct: endogenous in cells; host or cells: 293 cells
T1 sequence (O15530 1-556): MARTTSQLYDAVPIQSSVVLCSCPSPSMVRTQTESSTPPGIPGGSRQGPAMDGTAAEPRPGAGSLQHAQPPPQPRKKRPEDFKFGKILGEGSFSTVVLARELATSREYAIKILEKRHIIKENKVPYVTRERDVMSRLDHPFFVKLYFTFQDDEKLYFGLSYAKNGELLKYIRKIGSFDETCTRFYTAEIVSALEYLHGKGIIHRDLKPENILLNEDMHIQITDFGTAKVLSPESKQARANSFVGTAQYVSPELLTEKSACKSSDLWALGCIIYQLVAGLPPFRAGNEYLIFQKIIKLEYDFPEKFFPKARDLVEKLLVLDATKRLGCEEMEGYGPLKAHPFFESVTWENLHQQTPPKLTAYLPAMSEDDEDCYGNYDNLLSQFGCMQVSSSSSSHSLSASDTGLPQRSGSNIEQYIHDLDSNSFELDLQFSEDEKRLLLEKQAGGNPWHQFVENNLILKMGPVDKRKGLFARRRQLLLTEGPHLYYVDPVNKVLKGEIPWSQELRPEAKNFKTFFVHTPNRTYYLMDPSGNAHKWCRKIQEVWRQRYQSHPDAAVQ
Procedure: FIG. 3. Mapping the residues on PIF that are required for the interaction with PDK1. (A) 293 cells were transiently transfected with DNA constructs expressing either the wild type GST-PIF or the indicated point mutations of this protein. The cells were lysed and the GST fusion proteins purified by affinity chromatography on glutathione-Sepharose beads. Each GST-fusion protein was incubated for 30 min at 30° C. with GST-S473D-PKBα and MgATP in the presence or absence of phospholipid vesicles containing 100 μM PtdCho, 100 μM PtdSer, 10 μM sn-1-stearoyl-2-arachidonoyl-D-PtdIns(3,4,5)P3, and the increase in specific activity of GST-S473D-PKBα was determined relative to a control incubation in which the GST fusion protein was omitted. The basal activity of GST-S473D-PKBα was 3.5 U/mg. 2 μg of each protein was electrophoresed on a 10% SDS/polyacrylamide gel and either immunoblotted using a PDK1 antibody raised against whole protein to detect any endogenous PDK1, or stained with Coomassie blue to establish the level of expression of the GST-PIF protein. Similar results were obtained in 5 separate experiments using 2 or more preparations of the wild type and mutant GST-PIF proteins. (B) Yeast harbouring the pAS2-1 wild type PDK1 vector (“PDK1-Vector”) or the empty pAS2-1 vector (“Vector”) were transformed with pGAD10 plasmid coding for the expression of the wild type PIF or the indicated mutants of PIF. The resulting yeast strain was grown on SD-Leu-Trp-Ura-His+3-AT medium which only permits growth of yeast constructs in which GST-PIF and PDK1 are capable of interacting.
Expression of GST-fusion proteins in 293 cells. Up to twenty 10 cm diameter dishes of 293 cells were cultured and each dish transfected with 20 μg of pEBG2T DNA encoding the desired GST-fusion protein using a modified calcium phosphate method. In experiments described in FIG. 1 in which Myc-PDK1 constructs (pCMV5 vector) were coexpressed with GST-PIF (pEBG2T vector) or GST alone (empty pEBG2T vector) 10 μg of each construct was used. […]

[2] = target: T2, PDK1 (Homo sapiens, UniProt O15530); test: Yeast two hybrid interaction of PIF with PDK1; format: binding
T2 construct: expressed in transfected cells; host or cells: yeast strain Y166
T2 sequence (O15530 1-556): T1 sequence (O15530 1-556)
Description: (§1) FIG. 1. Two hybrid interaction of PIF with the kinase domain of PDK1. Yeast were transformed with a pGAD10 plasmid (LEU2) harbouring the C-terminal 77 amino acids of PRK2 (termed PIF) in the presence of either a pAS2-1 plasmid (TRP1) coding for the expression of the wild type PDK1, the kinase domain of PDK1 (residues 1 to 404) or the PH domain of PDK1 (residues 428 to 556) or the empty pAS2-1 vector as a control (denoted by—(A). The position on the plate of each yeast strain is indicated in (A). In (B) the yeast are grown on SD-Leu and Trp deficient media in which all the strains of yeast are capable of growing independently of whether PIF is interacting with PDK1. An interaction between PIF and PDK1 leads to the expression of reporter genes coding for URA3 and HIS1 that will enable growth on SD-Leu-Trp-Ura-His+3-AT medium (C) as well as the induction of β-galactosidase gene expression (D). Alignment of the amino acid sequence of the C-terminal 77 amino acids of PRK2 with the equivalent region of AGC subfamily kinases indicated (E). Identical residues are denoted by white-on-black letters, and similar residues by grey boxes. PRK2 (SEQ ID NO:14; PRK1 (SEQ ID NO:15); PKBα (SEQ ID NO:16); P70S6k (SEQ ID NO:17); SGK (SEQ ID NO:18); PKCζ (SEQ ID NO:19); PKCα (SEQ ID NO:20); PKCβ (SEQ ID NO:21).
(§2) Myc-tagged human PDK1, kinase domain of PDK1 (residues 1-404) and the PH domain of PDK1 (428 to 556) were subcloned into the EcoRI/SalI of the yeast pAS2-1 vector. A yeast two hybrid screen was carried out using a human skeletal muscle library subcloned into the pGAD10 vector (Clontech) transformed into the yeast strain Y166. 4×10^6 yeast cells were transformed with pGAD10 library constructs and PDK1 constructs in the pAS2-1 vector. […] In this system interacting clones from the library are able to grow in medium lacking histidine and uracil and express β-galactosidase which was detected using the Clontech protocol. pGAD10 plasmids from interacting clones were isolated transferred to E. coli, and sequenced. […]

[3] = target: T3, PDK1 (Homo sapiens, UniProt O15530); test: Yeast two hybrid interaction of PIF with PDK1; format: binding; remark: listed apart in the source
T3 construct: expressed in transfected cells; host or cells: yeast strain Y166
T3 sequence (O15530 428-556): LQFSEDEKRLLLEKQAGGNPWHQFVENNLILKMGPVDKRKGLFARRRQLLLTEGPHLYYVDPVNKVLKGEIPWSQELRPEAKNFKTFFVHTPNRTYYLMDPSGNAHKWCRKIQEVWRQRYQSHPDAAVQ
Description: as §1, §2

[4] = target: T4, PDK1 (Homo sapiens, UniProt O15530); test: Yeast two hybrid interaction of PIF with PDK1; format: binding; remark: listed apart in the source
T4 construct: expressed in transfected cells; host or cells: yeast strain Y166
T4 sequence (O15530 1-404): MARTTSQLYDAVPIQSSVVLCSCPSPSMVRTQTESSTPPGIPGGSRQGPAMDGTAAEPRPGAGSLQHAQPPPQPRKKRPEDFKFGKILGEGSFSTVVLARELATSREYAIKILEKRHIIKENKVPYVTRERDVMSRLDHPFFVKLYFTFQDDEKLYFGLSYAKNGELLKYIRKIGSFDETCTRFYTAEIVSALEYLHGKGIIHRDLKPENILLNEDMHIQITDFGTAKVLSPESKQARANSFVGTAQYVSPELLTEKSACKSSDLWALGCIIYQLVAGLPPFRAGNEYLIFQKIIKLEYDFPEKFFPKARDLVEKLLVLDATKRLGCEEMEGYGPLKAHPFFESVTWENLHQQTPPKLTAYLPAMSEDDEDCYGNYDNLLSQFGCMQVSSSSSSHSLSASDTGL
Description: as §1, §2

[5] = tested on: PDK1; test: Activation of GST-ΔPH-PKBα by PDK1 with or without PIF and phosphoinositide; format: biochemical; conditions: absence of PtdIns(3,4,5)P3
Procedure: FIG. 8. Maximal activation of PKB by PDK1/PIF requires PtdIns(3,4,5)P3 to interact with both PKB and PDK1. […] The basal activity of GST-ΔPH-PKBα was 3.0 U/mg.
Measurement of PKBα activation after incubation with GST-PIF. This assay was carried out in 2 stages, as described previously; briefly, in the first, GST-PKBα was incubated with GST-PIF (or other indicated PDK1 proteins in the presence or absence of peptides) in the presence of MgATP and phospholipid vesicles.
In Stage 1, an 15 μl reaction mixture was set up containing 66.5 mM Tris/HCl pH 7.5, 0.13 mM EGTA, 0.13% (by vol) 2-mercaptoethanol, 3.3 μM PKI, 1.3 μM microcystin-LR, 13.3 mM Mg(Ac)2, 133 μM unlabelled ATP, 0.4 μM GST-PKBA, 133 μM PtdSer, 133 μM PtdCho in the presence or absence of 13.3 μM PtdIns(3,4,5)P3. The assay was initiated by the addition of 5 μl of 0.2 mg/ml GST-PIF (or other indicated proteins or peptides), after incubation for 30 min at 30° C., stage 2 of the assay was initiated by the addition of 30 μl of a mixture made up of Buffer B containing 2.5 μM PKI, 1 μM microcystin-LR, 10 mM Mg(Ac)2, 100 μM [γ^32P]ATP (200-400 cpm/pmol), 100 μM of the peptide RPRTAAF (SEQ ID NO:13) and 1.25% (by vol) Triton X-100. After 10 min at 30° C., the reactions were terminated by spotting the reaction mixture on to P81 phosphocellulose paper. The papers were washed in 75 mM phosphoric acid and analysed as described previously. A control reaction in which GST-PKBα was omitted was taken as the blank and was always less than 5% of the activity measured in the presence of GST-PKBα. The basal GST-PKBα activity is the activity measured in the absence of PDK1. 1 Unit of GST-PKBα activity was that amount of enzyme required to catalyse the phosphorylation of 1 nmol of the peptide RPRTAAF (SEQ ID NO:13) in 1 min. The assays were linear with time up to a final concentration of 3 U/ml of PDK1 activity in the assay.

[6] = target: T5, His-PDK1 (Homo sapiens, UniProt O15530); test: Surface Plasmon Resonance (BiaCore) binding of His-PDK1 to GST-PIF / Region B peptide
T5 construct: made in house; host or cells: Sf21 insect cells (baculovirus, pFASTBAC HTb)
T5 sequence (O15530 1-556): T1 sequence (O15530 1-556)
Procedure: FIG. 12. Quantitative analysis of the binding of PDK1 to PIF. Surface Plasmon Resonance measurements were carried out on a BiaCore instrument as described in the methods section. […] The responses at steady state binding were recorded. […] All data are single determinations from a representative experiment that was repeated at least 3 times with similar results.
BiaCore measurements. GST-PIF was coupled through amine groups to the Sensor Chip CM5 according to the manufacturer's instructions. […] The 24 residue peptide overlapping Region B was biotinylated through its C-terminal Cys and bound to Avidin coated Sensor Chip SA. […] The decrease in steady state binding was used to determine the Kd of interaction between PDK1 and the peptide, according to the […] relationship. The measure of response in our experiments is termed RU; 1000 RU=1 ng/mm^2 of protein bound to the surface.

association of endogenous PDK1 with GST-PIF protein [1]: completely abolished
Substance: F974: GST-PIF mutant, F974 mutated to Ala [Lipid F974]

association of endogenous PDK1 with GST-PIF protein [1]: completely abolished
Substance: F977: GST-PIF mutant, F977 mutated to Ala [Lipid F977]

two hybrid interaction with full length PDK1 [2]: positive interaction
two hybrid interaction with the PH domain of PDK1 [3]: not
two hybrid interaction with the isolated kinase domain of PDK1 [4]: positive interaction
Substance: PIF: C-terminal 77 amino acids of PRK2
inhibition of the catalytic activity of PDK1 [5]: ~2 fold

Kd ([6]; His-PDK1 0.5 μM mixed with free peptide, injected over immobilised peptide, read-out: Kd from competition by addition of free peptide): 1.5 µM
Kd ([6]; immobilised and biotinylated 24 residue peptide, His-PDK1 injected, read-out: Kd): 0.8 µM
Substance: REPRILSEEEQEMFRDFDYIADWC [Region B peptide]

association of endogenous PDK1 with GST-PIF protein [1]: completely abolished
Substance: Y979: GST-PIF mutant, Y979 mutated to Ala [Lipid Y979]
